Biological target: MlucV reporter (mTFP1 - mutated firefly luciferase - Venus), urea-pre-unfolded / misfolding (firefly)

Ydj1 (yeast class A J-domain protein), sequence (P25491 whole entry): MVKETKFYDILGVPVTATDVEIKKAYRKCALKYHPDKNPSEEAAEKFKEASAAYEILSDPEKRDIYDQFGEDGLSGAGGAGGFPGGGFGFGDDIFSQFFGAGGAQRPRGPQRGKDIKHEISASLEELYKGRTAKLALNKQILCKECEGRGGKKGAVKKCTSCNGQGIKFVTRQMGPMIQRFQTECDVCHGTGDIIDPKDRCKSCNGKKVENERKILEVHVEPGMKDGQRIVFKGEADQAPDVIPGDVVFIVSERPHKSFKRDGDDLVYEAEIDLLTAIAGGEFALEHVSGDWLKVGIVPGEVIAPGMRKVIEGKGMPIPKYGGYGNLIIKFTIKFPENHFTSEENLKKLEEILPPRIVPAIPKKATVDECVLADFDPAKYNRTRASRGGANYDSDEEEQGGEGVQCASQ
Ssa1 (yeast cytosolic Hsp70), sequence (P10591 whole entry): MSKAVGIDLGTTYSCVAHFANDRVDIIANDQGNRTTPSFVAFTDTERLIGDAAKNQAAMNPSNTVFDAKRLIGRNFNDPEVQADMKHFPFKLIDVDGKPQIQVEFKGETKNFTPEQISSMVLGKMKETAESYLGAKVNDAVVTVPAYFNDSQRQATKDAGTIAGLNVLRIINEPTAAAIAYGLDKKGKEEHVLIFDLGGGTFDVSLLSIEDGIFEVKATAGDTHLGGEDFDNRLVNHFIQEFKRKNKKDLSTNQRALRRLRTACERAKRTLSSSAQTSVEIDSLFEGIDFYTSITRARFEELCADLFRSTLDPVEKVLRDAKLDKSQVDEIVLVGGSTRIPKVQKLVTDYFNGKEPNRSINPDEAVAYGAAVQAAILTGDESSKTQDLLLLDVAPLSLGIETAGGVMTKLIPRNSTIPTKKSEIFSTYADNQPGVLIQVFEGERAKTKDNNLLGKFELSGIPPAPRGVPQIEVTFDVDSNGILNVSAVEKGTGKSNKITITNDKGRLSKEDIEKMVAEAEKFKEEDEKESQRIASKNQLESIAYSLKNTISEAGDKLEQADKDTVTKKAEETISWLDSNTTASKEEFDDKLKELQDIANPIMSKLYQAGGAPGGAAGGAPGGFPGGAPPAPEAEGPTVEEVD

Substance: Ydj1 (yeast class A J-domain protein) (from UniProt P25491 1-409) (natural protein)
- prevention of aggregation: normalised FRET of urea-pre-unfolded MlucV diluted into increasing Ydj1 (150% without Ydj1; native MlucV = 100%) (% of the FRET of native MlucV): 105

Substance: Ssa1 (yeast cytosolic Hsp70) (from UniProt P10591 1-642) (natural protein)
- prevention of aggregation: normalised FRET of urea-pre-unfolded MlucV diluted into increasing Ssa1 (150% without chaperone) (% of the FRET of native MlucV): 145
